In patent US20180312587A1 (ADURO BIOTECH HOLDINGS EUROPE B V, published 2018):

Tests used:
[1] = target: T1, hSIRPα expressed on primary human cells (human, UniProt P78324 31-504); experiment: flow cytometry, primary CD14+ enriched monocytes, donor 1
T1 construct: whole, on cells; also called hSIRPα on primary human CD14+ monocytes; on primary human granulocytes
Procedure: Next, the binding of hSIRPα.50A to hSIRPα expressed on primary human CD14⁺ monocytes was investigated. In addition, the ability of hSIRPα.50A to block the interaction between hSIRPα and recombinant hCD47/Fc-protein was assessed. For this purpose, CD14+ monocytes were isolated from Ficoll-purified human peripheral blood mononuclear cells (PBMCs) using RosetteSep human monocyte enrichment cocktail (Stemcell). The percentage of monocytes present after the enrichment was determined by flow cytometry on the FACSVerse (BD Biosciences) based on CD14 staining using an APC-Cy7-conjugated mouse-anti-human CD14 detection antibody (BD Biosciences). […] After this labeling procedure, cells were washed two times, resuspended in PBS/1% BSA containing 0.1 μg/mL DAPI (BioLegend), and analysed by flow cytometry on the FACSVerse (BD Biosciences). Data were processed and analysed with FlowJo V10 software (FlowJo, LLC).
To assess the blocking ability of hSIRPα.50A, CD14+ enriched monocytes cells were seeded in 96-well round bottomed tissue culture plates and incubated for 45 minutes with FcR Blocking Reagent (Miltenyi Biotec) and hSIRPα.50A antibody (200 μg/mL and dilutions thereof) in PBS/1% BSA at 4° C. […] After this labeling procedure, cells were washed two times, resuspended in PBS/1% BSA containing 0.1 μg/mL DAPI (BioLegend), and analysed by flow cytometry on the FACSVerse (BD Biosciences). […]

[2] = target: T2, hSIRPα-VαC1βC2α (human, UniProt P78324 31-504); experiment: CELISA, CHO-K1 transfectants, domain exchange study
T2 construct: domain exchange mutant
T2 chain: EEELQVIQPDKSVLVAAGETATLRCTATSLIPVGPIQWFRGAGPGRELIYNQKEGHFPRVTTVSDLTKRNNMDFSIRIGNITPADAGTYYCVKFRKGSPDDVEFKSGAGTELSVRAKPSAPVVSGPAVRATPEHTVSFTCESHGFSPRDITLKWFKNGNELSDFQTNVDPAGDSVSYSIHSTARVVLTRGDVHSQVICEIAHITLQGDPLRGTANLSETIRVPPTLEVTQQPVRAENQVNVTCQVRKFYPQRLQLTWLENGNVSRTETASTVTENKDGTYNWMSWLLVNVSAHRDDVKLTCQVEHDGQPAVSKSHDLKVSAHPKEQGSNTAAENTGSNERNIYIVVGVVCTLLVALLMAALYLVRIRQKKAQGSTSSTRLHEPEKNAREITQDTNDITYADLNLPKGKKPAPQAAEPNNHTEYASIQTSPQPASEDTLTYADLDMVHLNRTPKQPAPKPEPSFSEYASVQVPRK
Source text: Based on the fold of SIRPα, the extracellular region can be subdivided into three separate domains: the Ig-like (immunoglobulin-like) V-type (IgV), Ig-like C1-type (IgC1), and Ig-like C2-type (IgC2) domain. The IgV domain is also known as the ligand-binding N-terminal domain of SIRPα (which binds to CD47). The human SIRPαV1/β1 mutants were designed on the basis of the full length hSIRPαV1 sequence (SEQ ID NO: 33) and each individual Ig-like domain was substituted for the equivalent domain of human SIRPβ1 (SEQ ID NO: 37). The cDNAs encoding the constructs, hSIRPα-VβC1αC2α (SEQ ID NO: 55), hSIRPα-VαC1βC2α (SEQ ID NO: 57), and hSIRPα-VaC1αC2β (SEQ ID NO: 59) were synthesized (GeneArt) and subcloned into the pCI-neo vector. Binding of hSIRPα.50A to the exchange mutants was tested using CELISA. To this end, CHO-K1 cells were transiently transfected, using Lipofectamine 2000, with the pCI-neo vectors encoding hSIRPαV1, hSIRPαV2, hSIRPβ1, hSIRPα-VβC1αC2α, hSIRPα-VαC1βC2α, and hSIRPα-VαC1αC2β, respectively. The transfected cells were cultured at 37° C., 5% CO₂ and 95% humidity in medium (DMEM-F12 (Gibco) with 5% New Born Calf serum (Biowest) and Pen/Strep (Gibco)) until confluent. Subsequently, cells were trypsinized and seeded in 96-well flat-bottom tissue culture plates and cultured at 37° C., 5% CO₂ and 95% humidity in culture medium until confluent. Then, culture medium was removed and cells were incubated for 1 hour at 37° C., 5% CO₂ and 95% humidity with hSIRPα.50A and anti-hSIRPα clone SE5A5 antibodies. Next, cells were washed with PBS-T and incubated for 1 hour at 37° C., 5% CO₂ and 95% humidity with goat-anti-mouse IgG-HRP conjugate (Southern Biotech). After that, cells were washed three times with PBS-T and anti-hSIRPα immunoreactivity was visualized with TMB Stabilized Chromogen (Invitrogen). Reactions were stopped with 0.5 M H₂SO₄ and absorbances were read at 450 and 610 nm.

T1 sequence (P78324 31-504): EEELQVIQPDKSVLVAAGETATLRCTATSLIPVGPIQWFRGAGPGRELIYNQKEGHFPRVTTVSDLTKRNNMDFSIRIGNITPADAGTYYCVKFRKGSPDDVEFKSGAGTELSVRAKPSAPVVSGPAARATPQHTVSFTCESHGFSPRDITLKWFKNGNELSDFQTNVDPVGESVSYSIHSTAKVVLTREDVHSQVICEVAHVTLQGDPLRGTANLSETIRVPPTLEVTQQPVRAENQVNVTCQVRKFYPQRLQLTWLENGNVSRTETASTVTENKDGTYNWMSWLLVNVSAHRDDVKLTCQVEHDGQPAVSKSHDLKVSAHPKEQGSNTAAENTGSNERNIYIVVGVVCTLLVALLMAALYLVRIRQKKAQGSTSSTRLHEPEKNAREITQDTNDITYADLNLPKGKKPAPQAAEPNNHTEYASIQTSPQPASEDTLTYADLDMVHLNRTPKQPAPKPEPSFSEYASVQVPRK

EC50 [1]: 7.38 nM | EC50 [2]: 0.345 nM
B1: hSIRPα.50A (antibody, V domains shown)
VH: QVQLQQSGPELVKPGASVRISCKASGFTFTNYYIHWVKQRPGQGLEWIGWIYPGNVNTKYNEKFKAKATLTADKSSTTAYMQLSSLASEDSAVYFCARPTIIATDFDVWGAGTTVTVSS
VL: DIVMTQSHKFMSTSVGDRVNITCKASQGVGTAVGWYQQKPGQSPRLLIYWASTRHTGVPDRFTGSGSGTDFSLAISNVQSEDLADYFCQQYSTYPFTFGGGTNLEIK
notes: light chain constant domain not tied; also called mouse hSIRPα.50A; hSIRPα.50A.mIgG1
